# Source: publication PMC11384143 (2024)
# Read-outs that look alike come from different tables or passages of the source.
# B1: hu1H9 (an analogue of FSI-189, Gilead) (antibody, V domains shown)
# VH: QVQLVQSGAEVKKPGASVKVSCKASGYTFTSYWITWVKQAPGQGLEWIGDIYPGSGSTNHIEKFKSKATLTVDTSISTAYMELSRLRSDDTAVYYCATGYGSSYGYFDYWGQGTLVTVSS
# VL: DIQMTQSPSSLSASVGDRVTITCRASENIYSYLAWYQQKPGKAPKLLIYTAKTLAEGVPSRFSGSGSGTDFTLTISSLQPEDFATYYCQHQYGPPFTFGQGTKLEIK
# B2: HEFLB (an analogue of BI 765063) (antibody, V domains shown)
# VH: EVQLVQSGAEVKKPGESLRISCKASGYSFTSYWVHWVRQMPGKGLEWMGNIDPSDSDTHYSPSFQGHVTLSVDKSISTAYLQLSSLKASDTAMYYCVRGGTGTLAYFAYWGQGTLVTVSS
# VL: DVVMTQSPLSLPVTLGQPASISCRSSQSLVHSYGNTYLYWFQQRPGQSPRLLIYRVSNRFSGVPDRFSGSGSGTDFTLKISRVEAEDVGVYYCFQGTHVPYTFGGGTKVEIK
# B3: 6 × His tagged cynomolgus SIRPα ECD recombinant protein (domain or fragment)
# chain: EEELQVIQPEKSVSVAAGDSATLNCTVSSLIPVGPIQWFRGAGPGRELIYNLKEGHFPRVTPVSDPTKRNNMDFSIRISNITPADAGTYYCVKFRKGSPDVELKSGAGTELSVRAKPSAPVVSGPAVRATAEHTVSFTCESHGFSPRDITLKWFKNGNELSDVQTNVDPAGKSVSYSIRSTARVVLTRRDVHSQVICEVAHVTLQGDPLRGTANLSEAIRVPPFLEVTQQSMRADNQVNVTCQVTKFYPQRLQLTWLENGNVSRTEMASALPENKDGTYNWTSWLLVNVSAHRDDVKLTCQVEHDGQPAVNKSFSVKVSAHPKEQGSNTAAENTGTNERN
# B4: 6 × His tagged huSIRPγ ECD recombinant protein (domain or fragment)
# chain: EEELQMIQPEKLLLVTVGKTATLHCTVTSLLPVGPVLWFRGVGPGRELIYNQKEGHFPRVTTVSDLTKRNNMDFSIRISSITPADVGTYYCVKFRKGSPENVEFKSGPGTEMALGAKPSAPVVLGPAARTTPEHTVSFTCESHGFSPRDITLKWFKNGNELSDFQTNVDPTGQSVAYSIRSTARVVLDPWDVRSQVICEVAHVTLQGDPLRGTANLSEAIRVPPTLEVTQQPMRVGNQVNVTCQVRKFYPQSLQLTWSENGNVCQRETASTLTENKDGTYNWTSWFLVNISDQRDDVVLTCQVKHDGQLAVSKRLALEVTVHQKDQSSDATP
# Key:
# [1] = molecular target: B4; experiment: SPR
# [2] = molecular target: B4; experiment: SPR
# [3] = molecular target: T1, 6 × His tagged huSIRPα V1 ECD recombinant protein (human, UniProt P78324 31-373); experiment: SPR
# T1 sequence (P78324 31-373): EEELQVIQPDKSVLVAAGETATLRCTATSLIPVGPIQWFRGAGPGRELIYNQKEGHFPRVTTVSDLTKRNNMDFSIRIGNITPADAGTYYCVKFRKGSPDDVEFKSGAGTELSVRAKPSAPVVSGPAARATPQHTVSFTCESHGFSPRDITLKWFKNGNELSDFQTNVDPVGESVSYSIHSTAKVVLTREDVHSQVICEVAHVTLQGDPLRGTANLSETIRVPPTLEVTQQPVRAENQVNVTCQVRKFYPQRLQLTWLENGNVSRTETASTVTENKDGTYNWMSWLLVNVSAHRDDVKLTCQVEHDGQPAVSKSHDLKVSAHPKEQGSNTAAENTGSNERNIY
# [4] = molecular target: T1, 6 × His tagged huSIRPα V1 ECD …; experiment: SPR; remark: listed apart in the source
# [5] = molecular target: huSIRPα V2 overexpressed on CHOK1/hSIRPα V2 cells (human, UniProt P78324 31-504); experiment: FACS; competition with huCD47 ECD
# Chain of huSIRPα V2 overexpressed on CHOK1/hSIRPα V2 cells (P78324 other isoform, or with tags, fused parts or gaps): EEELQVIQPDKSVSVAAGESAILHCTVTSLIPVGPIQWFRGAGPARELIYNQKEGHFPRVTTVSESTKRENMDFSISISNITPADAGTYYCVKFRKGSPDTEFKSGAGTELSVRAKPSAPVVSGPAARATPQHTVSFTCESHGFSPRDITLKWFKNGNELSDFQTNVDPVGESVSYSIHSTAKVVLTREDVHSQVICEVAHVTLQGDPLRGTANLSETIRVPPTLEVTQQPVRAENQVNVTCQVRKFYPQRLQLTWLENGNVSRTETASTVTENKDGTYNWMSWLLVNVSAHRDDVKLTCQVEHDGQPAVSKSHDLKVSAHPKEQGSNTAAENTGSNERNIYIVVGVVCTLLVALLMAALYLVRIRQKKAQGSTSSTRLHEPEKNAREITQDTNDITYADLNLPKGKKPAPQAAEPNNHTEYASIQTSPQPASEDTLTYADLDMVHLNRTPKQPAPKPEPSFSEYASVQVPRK
# [6] = molecular target: huSIRPα V1 overexpressed on CHOK1/hSIRPα V1 cells (human, UniProt P78324 31-504); experiment: FACS; competition with huCD47 ECD
# Chain of huSIRPα V1 overexpressed on CHOK1/hSIRPα V1 cells (P78324 31-504): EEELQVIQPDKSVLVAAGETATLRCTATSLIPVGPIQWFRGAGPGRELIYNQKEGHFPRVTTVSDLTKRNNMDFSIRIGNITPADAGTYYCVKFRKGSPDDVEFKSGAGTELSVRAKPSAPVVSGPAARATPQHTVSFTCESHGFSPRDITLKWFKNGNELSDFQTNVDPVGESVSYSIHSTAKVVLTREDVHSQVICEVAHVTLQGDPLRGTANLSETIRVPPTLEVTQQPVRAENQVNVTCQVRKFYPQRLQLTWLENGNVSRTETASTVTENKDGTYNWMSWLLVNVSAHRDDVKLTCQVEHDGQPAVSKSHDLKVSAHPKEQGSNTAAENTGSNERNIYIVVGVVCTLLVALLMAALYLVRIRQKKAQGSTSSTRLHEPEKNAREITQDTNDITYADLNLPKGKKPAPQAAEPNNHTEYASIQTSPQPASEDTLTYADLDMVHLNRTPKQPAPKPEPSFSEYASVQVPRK
# [7] = molecular target: ES004-B5; experiment: SPR
# [8] = molecular target: ES004-B5; experiment: SPR; remark: listed apart in the source
binder,measurement,setting,value
B1,koff,[1],0.0135 s⁻¹
same,Kd,[2],20.7 nM
same,koff,[3],0.00187 s⁻¹
same,Kd,[4],1.91 nM
same,IC50,[5],6.04 nM
same,IC50,[6],1.17 nM
B2,koff,[3],0.00631 s⁻¹
same,Kd,[4],12.8 nM
same,IC50,[6],1.29 nM
B3,Kd,[7],6.01 nM
same,koff,[7],0.00729 s⁻¹
B4,Kd,[8],2.81 nM
same,koff,[8],0.00422 s⁻¹
